Test results taken from publication PMC3285612, “Simukunin from the Salivary Glands of the Black Fly Simulium vittatum Inhibits Enzymes That Regulate Clotting and Inflammatory Responses” (PLoS ONE, 2012).

Key:
[1] = biological target: T1, elastase (purified from human sputum) (human, UniProt P08246 30-267); experiment: cell-based or functional assay
T1 sequence (looked up): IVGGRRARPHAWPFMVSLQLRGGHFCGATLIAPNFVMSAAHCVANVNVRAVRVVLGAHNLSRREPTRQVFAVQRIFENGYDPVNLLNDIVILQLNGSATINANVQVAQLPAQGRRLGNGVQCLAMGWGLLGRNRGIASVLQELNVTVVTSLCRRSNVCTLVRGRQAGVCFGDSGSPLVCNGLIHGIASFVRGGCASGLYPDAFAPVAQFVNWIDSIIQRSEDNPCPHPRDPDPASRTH

[2] = biological target: skin β-tryptase (human, UniProt Q15661 19-275); experiment: cell-based or functional assay
Chain of skin β-tryptase (Q15661 19-275): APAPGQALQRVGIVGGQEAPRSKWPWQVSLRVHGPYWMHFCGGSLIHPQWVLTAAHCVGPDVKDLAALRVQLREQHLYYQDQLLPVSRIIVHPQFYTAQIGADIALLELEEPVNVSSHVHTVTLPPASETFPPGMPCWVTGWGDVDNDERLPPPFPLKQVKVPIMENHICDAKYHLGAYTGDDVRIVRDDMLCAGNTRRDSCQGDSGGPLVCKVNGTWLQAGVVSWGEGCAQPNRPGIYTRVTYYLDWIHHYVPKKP

[3] = biological target: activated coagulation factor XI (FXIa) (human); experiment: cell-based or functional assay
Chain of activated coagulation factor XI (FXIa) (human) (chain, as listed by the source, chain 1 of 2): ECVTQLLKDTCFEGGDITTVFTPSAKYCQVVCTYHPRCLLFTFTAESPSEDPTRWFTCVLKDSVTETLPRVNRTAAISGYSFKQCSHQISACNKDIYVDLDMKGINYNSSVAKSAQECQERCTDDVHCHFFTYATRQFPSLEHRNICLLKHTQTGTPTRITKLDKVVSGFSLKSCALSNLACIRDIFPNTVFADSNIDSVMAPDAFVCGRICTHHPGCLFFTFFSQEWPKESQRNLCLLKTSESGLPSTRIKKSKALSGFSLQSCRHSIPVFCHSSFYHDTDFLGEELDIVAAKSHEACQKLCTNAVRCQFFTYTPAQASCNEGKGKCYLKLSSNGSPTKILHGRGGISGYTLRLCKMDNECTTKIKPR
Chain of activated coagulation factor XI (FXIa) (human) (chain, as listed by the source, chain 2 of 2): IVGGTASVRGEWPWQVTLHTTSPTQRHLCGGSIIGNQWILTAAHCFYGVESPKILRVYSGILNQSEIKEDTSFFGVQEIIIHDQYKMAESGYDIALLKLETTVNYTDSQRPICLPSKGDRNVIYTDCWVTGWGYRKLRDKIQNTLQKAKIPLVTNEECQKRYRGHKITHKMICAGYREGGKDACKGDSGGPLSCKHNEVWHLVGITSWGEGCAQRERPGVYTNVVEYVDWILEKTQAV

[4] = biological target: T2, cathepsin G (human, UniProt P08311 21-244); experiment: cell-based or functional assay
T2 sequence (looked up): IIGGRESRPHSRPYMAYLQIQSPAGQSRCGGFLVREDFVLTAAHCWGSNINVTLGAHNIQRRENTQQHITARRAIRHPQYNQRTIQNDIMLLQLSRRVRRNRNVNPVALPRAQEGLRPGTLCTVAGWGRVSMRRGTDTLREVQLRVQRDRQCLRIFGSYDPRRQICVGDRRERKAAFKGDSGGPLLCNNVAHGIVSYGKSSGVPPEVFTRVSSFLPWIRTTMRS

[5] = biological target: kallikrein (human, UniProt P03952 20-638); experiment: cell-based or functional assay
Chain of kallikrein (P03952 20-638): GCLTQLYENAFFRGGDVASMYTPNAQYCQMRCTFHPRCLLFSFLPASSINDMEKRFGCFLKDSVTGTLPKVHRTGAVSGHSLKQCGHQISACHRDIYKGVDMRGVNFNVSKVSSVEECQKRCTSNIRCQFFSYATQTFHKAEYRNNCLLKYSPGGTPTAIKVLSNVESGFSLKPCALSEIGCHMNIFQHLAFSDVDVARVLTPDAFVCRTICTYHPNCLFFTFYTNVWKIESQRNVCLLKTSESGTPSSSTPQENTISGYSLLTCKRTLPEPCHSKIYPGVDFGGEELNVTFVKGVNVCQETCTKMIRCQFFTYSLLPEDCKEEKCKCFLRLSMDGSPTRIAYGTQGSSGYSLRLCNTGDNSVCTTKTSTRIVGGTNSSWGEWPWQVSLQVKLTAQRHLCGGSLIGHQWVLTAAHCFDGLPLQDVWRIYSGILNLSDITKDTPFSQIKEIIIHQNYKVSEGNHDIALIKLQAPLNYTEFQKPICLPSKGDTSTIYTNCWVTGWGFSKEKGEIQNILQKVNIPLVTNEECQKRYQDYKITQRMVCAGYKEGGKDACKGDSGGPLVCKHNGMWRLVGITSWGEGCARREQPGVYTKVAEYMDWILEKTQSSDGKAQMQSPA

[6] = biological target: trypsin (sequencing grade) (human, UniProt P07477 16-247); experiment: cell-based or functional assay
Chain of trypsin (sequencing grade) (P07477 16-247): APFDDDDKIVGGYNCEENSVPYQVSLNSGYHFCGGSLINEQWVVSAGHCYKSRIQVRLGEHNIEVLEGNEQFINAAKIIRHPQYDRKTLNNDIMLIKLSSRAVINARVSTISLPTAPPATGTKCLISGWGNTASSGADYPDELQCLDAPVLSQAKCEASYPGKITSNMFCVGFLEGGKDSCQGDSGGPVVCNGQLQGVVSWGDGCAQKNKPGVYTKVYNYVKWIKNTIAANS

[7] = biological target: plasmin (human); experiment: cell-based or functional assay
Chain of plasmin (human) (P00747 20-580, chain 1 of 2): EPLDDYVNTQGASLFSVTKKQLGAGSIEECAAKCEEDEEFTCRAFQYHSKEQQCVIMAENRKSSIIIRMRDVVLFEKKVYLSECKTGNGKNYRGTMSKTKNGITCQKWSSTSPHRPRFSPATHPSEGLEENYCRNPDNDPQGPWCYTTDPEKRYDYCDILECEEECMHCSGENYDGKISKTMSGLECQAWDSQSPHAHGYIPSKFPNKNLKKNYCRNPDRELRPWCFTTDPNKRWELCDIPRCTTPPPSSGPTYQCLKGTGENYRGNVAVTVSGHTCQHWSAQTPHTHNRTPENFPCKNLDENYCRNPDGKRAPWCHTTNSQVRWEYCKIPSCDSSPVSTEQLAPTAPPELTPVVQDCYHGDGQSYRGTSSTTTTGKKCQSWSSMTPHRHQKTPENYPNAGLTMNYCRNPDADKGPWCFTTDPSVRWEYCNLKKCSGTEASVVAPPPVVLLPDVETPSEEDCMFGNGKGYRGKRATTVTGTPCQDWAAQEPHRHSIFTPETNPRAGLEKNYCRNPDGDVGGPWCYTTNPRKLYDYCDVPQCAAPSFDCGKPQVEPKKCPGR
Chain of plasmin (human) (P00747 581-810, chain 2 of 2): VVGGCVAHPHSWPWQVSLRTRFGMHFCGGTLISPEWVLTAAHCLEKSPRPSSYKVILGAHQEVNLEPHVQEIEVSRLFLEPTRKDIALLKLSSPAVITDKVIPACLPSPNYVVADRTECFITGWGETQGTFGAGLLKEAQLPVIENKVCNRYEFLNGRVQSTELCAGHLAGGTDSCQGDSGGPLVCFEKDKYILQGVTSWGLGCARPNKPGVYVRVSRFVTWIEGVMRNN

[8] = biological target: T1, elastase (purified from human sputum); experiment: enzyme inhibition assay (Ki from IC50 by Cheng and Prusoff); rSimukunin titrated against a constant concentration of enzyme, pre-incubated 5 min, fluorogenic peptidyl substrate 250 µM, 30°C; Ki calculated from the IC50 and the substrate's Km; estimated; details: both partners purified
[9] = biological target: T2, cathepsin G; experiment: as above; details: both partners purified
[10] = biological target: T1, elastase (purified from human sputum); experiment: SPR; kinetics: rSimukunin immobilised on a CM5 chip by amine coupling (475.3 RU); FXa 3.1-50 nM or elastase 0.45-3.75 nM injected for 180 s at 30 µl/minute, 25°C; HBS-P (10 mM Hepes pH 7.4, 150 mM NaCl, 0.005% P20); global fit to a 1:1 Langmuir model; details: both partners purified

B1: recombinant Simukunin (rSV-66) (natural protein, Simulium vittatum, UniProt B5M0W4 20-102, looked up)
chain: QENVCNLPVDEGVCRALFKRFYYEPATDSCKEFYYGGCEGNGNRFKSKKECILKCQKNKQLIKTRKRKPKKTTKPPIPIISLD
notes: SV-66 (Simukunin), Kunitz family salivary protein of the black fly Simulium vittatum; full-length ORF without signal peptide was cloned; numbers count on: the mature protein; pET-30 Ek/LIC vector; The purified protein ran as a doublet; also called rSimukunin; WT rSimukunin; source: E. coli BL21 (DE3), purified (Ni-NTA, RP-HPLC)
IC50 of inhibition of enzyme activity (fluorogenic peptidyl substrate, 250 µM); elastase 0.18 nM [1]: 4.9 nM | IC50 of inhibition of enzyme activity (fluorogenic peptidyl substrate, 250 µM); β-tryptase 0.01 nM [2]: 66.8 nM | IC50 of inhibition of enzyme activity (fluorogenic peptidyl substrate, 250 µM); Factor XIa 0.06 nM [3]: 56.7 nM | IC50 of inhibition of enzyme activity (fluorogenic peptidyl substrate, 250 µM); cathepsin G 6.7 nM [4]: 217 nM | IC50 of inhibition of enzyme activity (fluorogenic peptidyl substrate, 250 µM); kallikrein 0.08 nM [5]: 91.8 nM | IC50 of inhibition of enzyme activity (fluorogenic peptidyl substrate, 250 µM); trypsin 0.1 nM [6]: 379 nM | IC50 of inhibition of enzyme activity (fluorogenic peptidyl substrate, 250 µM); plasmin 0.2 nM [7]: 32.2 nM | Ki [8]: ~0.65 nM | Ki [9]: 100 nM | Kd [10]: 0.4 nM | koff [10]: 0.0173 s⁻¹ | kon [10]: 4.3e+07 M⁻¹ s⁻¹
